Experimental data as given in patent US20150196533A1, “METHOD FOR CONCURRENT TREATMENT OF PAIN AND DEPRESSION” (The General Hospital Corporation, priority 2012, published 2015).
“Also recorded” adds a separate entry of the source.

What was measured:
[1] = system: IDO1; experiment: Intra-hippocampal microinjection in naive rats: hippocampal IDO1 mRNA (real-time PCR); type: in vivo, rat; conditions: 0.1 μg once daily x 7 d into the left hippocampus of naive rats; P<0.05
Experimental: Under brief isoflurane anesthesia, a guide cannula (26 gauge, Plasticsone) was implanted just above the hippocampus (AP: −3.6 mm; left: +2.0 mm from Bregma; depth: −4.0 mm from skin) (Paxinos, G., and Watson, C. 1998. The rat brain in stertaxic coordinates. New York: Academic Press). An injection needle (33 gauge, Plasticsone) was inserted through the guide cannula and drug solution or vehicle (0.5 μl) was slowly injected over 5 min using a Hamilton syringe. Locations of the cannula placement were confirmed at the time of tissue harvest (data not shown).
Total RNA was isolated from hippocampal samples using TRIzol reagent (Invitrogen). Four μg of total RNA was used to synthesize the first strand cDNA using SuperScript III kit (Invitrogen). Four μl of cDNA was put into 20 μl vessel with 1 μl of 20× TaqMan Gene Expression Assay. Taqman Gene Expression Assays (Applied Biosystems) containing primers and a Taqman probe were used to quantify each gene of interest. The genes examined were IL-6 (Rn01410330 m1, M26744.1) and IDO1 (Rn00576778 m1, AF312699.1) for rats and IL-6 (Mm00446190 m1, X54542.1) and IDO1 (Mm00492586 m1, M69109.1) for mice. […] The RNA expression of GAPDH was measured as control.

[2] = system: IDO1 expression in Neuro2a cells; experiment: IL-6 exposure of cultured Neuro2a cells: IDO1 expression and activity; type: cell-based; conditions: 0.5 ng/ml for 24 hours
Experimental: Neuro2a cells were cultured in minimal essential (EAGLE) medium (Invitrogen) supplemented with 10% fetal bovine serum, 100 U/ml penicillin, and 100 μg/ml streptomycin (Invitrogen) in a humidified atmosphere of 5% CO2 and 95% air at 37° C. Cells were treated with 0.5 ng/ml IL-6 or vehicle and collected 24 hours later for assays (74).
Rats were anesthetized with pentobarbital (50 mg/kg, i.p.) and perfused transcardially with cold 0.9% saline (pH 7.4±0.1) followed by cold 4% paraformaldehyde in a phosphate buffer (PB, 0.1M, pH 7.4±0.1). Brains were removed and placed in the same fixative for post-fixation at 4° C. for 6 hours. For cryoprotection, the samples were kept with cold 30% sucrose in phosphate buffer saline (PBS) at 4° C. until samples sank to the bottom. Coronal brain sections (30 μm) were cut using a cryostat and then floated in PBS. Sections were blocked with 5% normal donkey serum in 0.3% Triton X-100/PBS for 1 hour at room temperature. Free floating sections were incubated overnight at 4° C. on a rocker with one of the following primary antibodies: 1:100, IDO1 rabbit polyclonal (Santa Cruz Biotechnology Inc.); 1:1,000, NeuN mouse monoclonal (Chemicon); 1:1,000, GFAP mouse monoclonal (BD Bioscience Pharmingen); 1:1,000, Iba-1 mouse monoclonal (Abcam). Sections were then washed with PBS three times and incubated with 1:300 FITC- or cyanine3-conjugated secondary antibody (JacksonlnununoResearch Laboratories Inc) for 1 hour at room temperature. Blue fluorescent DAPI (1:300; Invitrogen) was used to stain the nucleus of fixed cultured Neuro2a cells for 15 minutes.
Rats were sacrificed under pentobarbital anesthesia. The hippocampus was separated from the brain and immediately stored on dry ice and kept at −80° C. until use. Samples were homogenized in a lysis buffer with SDS containing a cocktail of proteinase inhibitors (Roche). Samples were separated on an SDS-PAGE gel (4%-15% gradient gel; Bio-Rad) and transferred to polyvinylidene difluoride filter (PVDF) membranes (Millipore). Membranes were blocked with 5% nonfat dried milk for 1 hour at room temperature and incubated over night at 4° C. on a rocker with one of following primary antibody: 1:200 IDO1 (Santa Cruz Biotechnology Inc.; rabbit polyclonal antibody), 1:200 IDO1 (Novius Biologicals; rabbit polyclonal antibody), 1:500 JAK2 (Santa Cruz Biotechnology Inc.; rabbit polyclonal antibody), 1:1,000 STAT3 (Millipore; rabbit polyclonal antibody), 1:5,000 p-STAT3 (Abcam; rabbit monoclonal antibody). After membranes were washed with PBS×4, membranes were incubated with 1:8,000 HRP conjugated secondary antibody (Amersham, Biosciences) for 1 hour at room temperature on a rocker. The membranes were washed with PBS×4 and blots were visualized in enhanced Chemiluminescent (ECL) solution (Pierce) for 5 minutes and exposed to hyperfilms (Kodak) for 15 minutes. Blots were again incubated in a Stripping buffer (Pierce) for 15 minutes at room temperature on a rocker and reprobed with 1:12,000 anti-β-actin antibody (Abeam Inc.) as a loading control. Western blots were made in triplicates. Band density was measured and normalized against a loading control band.
Total RNA was isolated from hippocampal samples using TRIzol reagent (Invitrogen). Four μg of total RNA was used to synthesize the first strand cDNA using SuperScript III kit (Invitrogen). Four μl of cDNA was put into 20 μl vessel with 1 μl of 20× TaqMan Gene Expression Assay. Taqman Gene Expression Assays (Applied Biosystems) containing primers and a Taqman probe were used to quantify each gene of interest. The genes examined were IL-6 (Rn01410330 m1, M26744.1) and IDO1 (Rn00576778 m1, AF312699.1) for rats and IL-6 (Mm00446190 m1, X54542.1) and IDO1 (Mm00492586 m1, M69109.1) for mice. The reaction was performed in duplicate with the following conditions: denaturing at 95° C. for 30 s, annealing at 60° C. for 2 min, extension at 68° C. for 2 min for 40 cycles using a 7300 Real-Time PCR System (Applied Biosystems). […]

B1: IL-6: exogenous IL-6 (recombinant rat IL-6), proinflammatory cytokine (protein, UniProt P20607 25-211, looked up)
Interleukin-6: FPTSQVRRGDFTEDTTHNRPVYTTSQVGGLITYVLREILEMRKELCNGNSDCMNSDDALSENNLKLPEIQRNDGCFQTGYNQEICLLKICSGLLEFRFYLEFVKNNLQDNKKDKARVIQSNTETLVHIFKQEIKDSYKIVLPTPTSNALLMEKLESQKEWLRTKTIQLILKALEEFLKVTMRSTRQT
With B1 the “hippocampal IDO1 mRNA expression (FIG. 9H)” value [1] was “increased IDO1 mRNA expression in the hippocampus; also recorded: up-regulated the hippocampal IDO1 mRNA expression”, the “IDO1 immunoreactivity (FIG. 8A)” value [2] was “increased” and the “IDO activity [KYN/TRP ratio and 5-HT/TRP ratio]” value [2] was “increased”. The “kynurenine/tryptophan ratio (HPLC; FIG. 8D)” value ([2]; P<0.05) was “increased kynurenine/tryptophan ratio”, the “serotonin/tryptophan ratio (HPLC; FIG. 8E)” value ([2]; P<0.05) was “decreased serotonin/tryptophan ratio” and the “IDO1 mRNA expression (real-time PCR; FIG. 8B)” value ([2]; P<0.05 vs vehicle) was “significantly increased”. The “IDO1 protein expression (Western blot; FIG. 8C)” value ([2]; P<0.05 vs vehicle) was “significantly increased”.
